{"source": "patent US20260028402A1", "about": "(published 2026)", "key": {"[1]": {"target": "T1, full-length mouse CD100 protein MusCD100 on cells (mouse, UniProt O09126 24-861)", "T1 chain": "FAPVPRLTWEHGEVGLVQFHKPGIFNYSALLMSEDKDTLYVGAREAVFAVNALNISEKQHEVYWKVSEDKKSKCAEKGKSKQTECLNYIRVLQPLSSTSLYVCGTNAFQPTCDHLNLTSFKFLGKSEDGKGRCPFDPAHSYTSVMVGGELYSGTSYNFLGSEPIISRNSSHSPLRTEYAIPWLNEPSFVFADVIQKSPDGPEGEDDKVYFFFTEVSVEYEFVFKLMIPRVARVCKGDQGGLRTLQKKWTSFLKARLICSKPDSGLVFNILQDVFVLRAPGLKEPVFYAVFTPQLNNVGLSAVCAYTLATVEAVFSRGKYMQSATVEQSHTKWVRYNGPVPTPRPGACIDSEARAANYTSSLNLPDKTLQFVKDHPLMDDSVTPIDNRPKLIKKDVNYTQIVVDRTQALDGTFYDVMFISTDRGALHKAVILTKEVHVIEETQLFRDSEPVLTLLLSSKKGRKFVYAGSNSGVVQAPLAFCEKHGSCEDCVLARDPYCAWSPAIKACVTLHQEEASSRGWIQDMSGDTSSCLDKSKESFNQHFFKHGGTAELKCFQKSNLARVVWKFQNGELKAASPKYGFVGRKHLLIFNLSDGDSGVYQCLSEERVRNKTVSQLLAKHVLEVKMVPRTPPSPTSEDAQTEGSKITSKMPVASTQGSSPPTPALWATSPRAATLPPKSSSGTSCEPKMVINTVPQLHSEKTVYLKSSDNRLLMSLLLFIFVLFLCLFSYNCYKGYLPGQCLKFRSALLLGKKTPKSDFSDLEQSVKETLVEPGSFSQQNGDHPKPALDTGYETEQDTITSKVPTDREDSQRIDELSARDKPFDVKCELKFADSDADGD", "assay": "FACS"}, "[2]": {"target": "full-length human CD100 protein HuCD100 on cells (human, UniProt Q92854 22-862)", "assay": "FACS"}}}
{"binder": "Pepinemab (antibody, V domains shown) VH: QVQLVQSGAEVKKPGSSVKVSCKASGYSFSDYYMHWVRQAPGQGLEWMGQINPTTGGASYNQKFKGKATITVDKSTSTAYMELSSLRSEDTAVYYCARYYYGRHFDVWGQGTTVTVSS VL: DIVMTQSPDSLAVSLGERATINCKASQSVDYDGDSYMNWYQQKPGQPPKLLIYAASNLESGVPDRFSGSGSGTDFTLTISSLQAEDVAVYYCQQSNEDPYTFGQGTKLEIK", "values": [{"measurement": "EC50", "setting": "[1]", "result": 274, "unit": "pM"}, {"measurement": "EC50", "setting": "[2]", "result": 138, "unit": "pM"}]}
